According to patent US11066655B2, “RNA polymerase, methods of purification and methods of use” (President and Fellows of Harvard College, priority 2013, dated 2021):

B1: Syn5 RNAP: single subunit DNA-dependent RNA polymerase from marine cyanophage Syn5, amino acid sequence SEQ ID NO:23 (protein)
chain: MSFDLIARQLQRETEAAELARKRLQDARREANERSYASSNIESRKAIATFLDPIAQRIGERLFTLRRGTGAVDAAEVYKHLKNADHHHLALITMKTALDVLGKDPEPQIQQLTTAIGRNIQLELRLTYYAEENPELYKQASRFFHAGTGTRQKATVIKLKFNREGIEWDQWSRVTCHKVGQWLMLAMADVTGWIERATDRTSGGRKTKTRICYSREFLQHRDTILAAAEQLAFCQWPMLCPPIEWSNDHNGGYLSEQIRRVNPLIRKTGPLGTRKQGDIPLAMLNNLQGQAYKVNPEVLDIANHCYESNVTVGKFIRHAPLPVPPSPGEDCTEDQLTAYKRARREAEDFNAQISQKNWRTTEVMYVARKYADEASFWMPASFDYRGRVYFLNTALNPQGTDFDKALLYFAEEGPVNEWWLSFHVATTYGLDKETMVNRVQWARDNHELIDRIASDPVRHTEWHDADEPWCFLAACLEYKACVIDGTKQTSGLPIGIDATCSGLQHLAAMTRCGRTAALVNVTPTDKPADAYKTVAQASLKHLPKEQHEWITRKVTKRPVMCTPYGVTMSSARGYIRDQLVKDGHKEDLRSPGVLNGIVKAIFNEAIPEVIPGPVQVMAWLKRSAGQIIDRGDSTITWTTPSGFEVVQDLKKSKTYEVKTRIMGGARIKLQVGDGFTDEPDRDHHKSALAPNVVHSNDASLLHLTFAFWDKPFTVIHDCVLGRSCDMDQMGSDIRLHFAEMYKADVMQDWADQVGVELPVDLIKNTLDIDSVNQSLYFFS
modifications: Amino acid sequence of a cyanophage Syn5 RNAP

Legend:
Syn5 promoter = experiment: Cross recognition of promoters, gel transcription assay; format: biochemical, cyanophage Syn5; conditions: for transcription from a Syn5 promoter: T7 DNA fragment with T7 promoter replaced by Syn5 promoter
Protocol: FIGS. 3A-3C depict characterization of the Syn5 promoter. A) Determination of the 3′-end of Syn5 promoter. 3′-dATP, 3′-dGTP, 3′-dUTP replaced ATP, GTP and UTP, respectively, as chain terminator to sequence the 5′-end of Syn5 RNAP transcript on a template same as template 1 in FIG. 2B. Once the 5′-terminus of the transcript was determined, the sequence preceding it should be the promoter and the 3′-end of the promoter can thus be defined. A 25% TBE-urea gel was used for this assay. B) Cross recognition between Syn5 and T7 transcription systems. Syn5 RNAP synthesizes runoff products on a fragment of T7 DNA provided the T7 promoter is replaced by a Syn5 promoter (lane a). Syn5 RNAP fails to produce transcripts if the first nucleotide downstream of the promoter is changed from G to T (lane b). […] T7 RNAP produces runoff and “N+1” products upon its own promoter (lane e). Sequences of templates can be found in Table 1. C) Schematic showing the identity of the two promoters based on the above data and previous bioinformatics analysis on the Syn5 and P-SSP7 genomes, respectively. Syn5 RNAP transcribes DNA fragments containing a Syn5 promoter to produce transcripts (>1500 for template 1, lane 1; and >200 nt for template 3, lane 3).
For the gel assay results shown in FIGS. 1, 2, 3, and 13, reaction mixtures (20 μl) contained 40 mM Tris-HCl (pH 7.9), 6 mM MgCl2, 2 mM spermidine, 10 mM DTT, 200 µM[…]P, GTP and UTP, 10 µM [[…]-^32P]CTP, 1.5 U/µl RNaseOUT™ recombinant ribonuclease inhibitor (Invitrogen), 100 nM Syn5 or T7 RNAP, and DNA templates as described in the figure legends (either 2 nM phage genomic DNA, 4 nM purified PCR products, or 1 µM synthetic dsDNA fragments). Reaction mixtures were incubated at 24° C. for 30 min. The reaction mixtures described in FIG. 6 contained 40 mM Tris-HCl (pH 8.0), 200 µM[…]P, GTP and UTP, 10 µM [[…]-^32P]CTP, 1.5 U/µl RNaseOUT™, 50 nM Syn5 RNAP, DNA templates, and various amounts of MgCl2, FeCl2, MnCl2 and KCl as described in the figure legends. […] After electrophoresis, gels were dried and analyzed using a Fuji BAS 1000 Bioimaging Analyzer.

[1] = test system: plasmid pET24 DNA harboring the Syn5 RNAP gene (pET24-S5RNAP); experiment: Filter-binding transcription assay (3H-AMP incorporation); format: biochemical
Protocol: FIGS. 4A-4B depict the effect of temperature and pH on Syn5 RNAP activity. A) Temperature. B) pH. RNA polymerase activity was measured as described in Materials and Methods described herein. The reactions contained 6 mM MgCl2, 200 µM 4 rNTPs (^3H-ATP), 50 nM Syn5 RNAP and 4 nM template (pET24-S5RNAP). The pH was 8.0 for assays in A and the temperature was 24° C. for B. Reactions were terminated and the amount of AMP incorporated was measured at 3, 10, and 30 min. The AMP incorporation was linear in this time range and the data measured at 10 min are presented.
FIGS. 5A-5C depict reaction requirements for Syn5 RNAP. A) Effect of NaCl on Syn5 RNAP activity. B) Effect of KCl on Syn5 and T7 RNAP (dashed line) activity. C) MgCl2 concentration on Syn5 RNAP activity. Reactions contained 200 µM 4 rNTPs (^3H-ATP), 50 nM Syn5 RNAP and 4 nM template (pET24-S5RNAP). For A and B, reactions also contained 6 mM MgCl2. For C, 160 mM KCl was present. Reactions were terminated and the amount of AMP incorporated was measured at 2.5, 5, and 10 min. AMP incorporation was linear in this time range and the data measured at 10 min are presented.
Basic reaction mixtures contained 40 mM Tris-HCl (pH 8.0 unless otherwise specified), 2 mM spermidine, 10 mM DTT, 200 µM[…] GTP, C[…]P, UTP and ^3H-ATP (20 cpm/pmole), 1.5 U/µl RNaseOUT™, 50 nM Syn5 or T7 RNAP and 4 nM plasmid pET24 DNA harboring the Syn5 RNAP gene (pET24-S5RNAP) that contains a single Syn5 promoter in the RNAP gene and a single T7 promoter preceding the gene. Reaction mixtures were incubated at 24° C. unless otherwise specified.
For the assays described in FIG. 7, reaction mixtures contained 40 mM Tris-HCl (pH 8.0), 6 mM MgCl2, 2 mM spermidine, 10 mM DTT, 20 nM Syn5 or T7 RNAP, 20 nM pET24-S5RNAP DNA, 1 mM ^3H-ATP (20 cpm/pmole), CTP, UTP (or GTP), and varying amounts of GTP (or UTP). 160 mM KCl was added for the Syn5 RNAP reactions. After various times the reactions were stopped by the addition of 20 mM EDTA. 4 µl of the mixtures were then loaded onto Whatman DE81 filter paper disks and the disks were washed to remove the unincorporated ^3H-ATP. The amount of insoluble ^3H-AMP, corresponding to nucleotides incorporated into newly synthesized RNA, was measured using a scintillation counter. The data were analyzed using Prism software.

Row | Molecule | transcription from a Syn5 promoter (Syn5 promoter) | sensitivity to ionic strength ([1]; KCl titration, FIG. 5B) | first nucleotide after promoter changed from G to T (Syn5 promoter; FIG. 3B lane b) | potassium required for maximal activity [1] | metal ions in place of Mg2+ as cofactor ([1]; 10 mM Ca2+, Co2+, Cu2+ or Ni2+) | metal ions in place of Mg2+ as cofactor ([1]; 10 mM Zn2+ or Mn2+) | increase of activity by NaCl ([1]; 80 mM NaCl, 6 mM MgCl2) | stimulation of activity by KCl ([1]; 160 mM KCl, 6 mM MgCl2) | activity remaining ([1]; 300 mM KCl) | pH of highest activity ([1]; 24° C.) | % of maximum activity ([1]; at 0° C.) | % of maximum activity ([1]; at 37° C.) | % of maximum activity ([1]; at 42° C.) | Km ([1]; in the presence of 160 mM KCl, read-out: Km for MgCl2 as cofactor) | optimum temperature ([1]; pH 8.0, 6 mM MgCl2, 50 nM RNAP, 4 nM template)
1 | T7 RNAP: RNA polymerase encoded by bacteriophage T7, from New England Biolabs [reference compound] | does not initiate transcription but does catalyze some non-specific RNA synthesis | highly sensitive to the ionic strength of the reaction | – | – | – | – | – | – | – | – | – | – | – | – | –
2 | B1 | produce a run-off product of the expected size | – | unable to incorporate UTP as the first ribonucleotide | 160 mM | cannot replace Mg^2+ | A small amount of activity | two-fold | three-fold | 10% | 8.0 | 15% | 8% | 2% | ~2500 µM | 24 °C
